The values that follow come from paper PMC10362037.

One may read the Kd as the free concentration of one partner at which half of the binding sites on the other are occupied at equilibrium, for simple one-to-one binding. Low readings indicate a tighter complex, high ones a looser complex.

In the assay the target is SARS-CoV-2 Omicron (B.1.1.529) Spike S1 (Sino Biological, 40591-V08H41) (SARS-CoV-2). Description: SPR. For orientation: SPR reads the build-up and loss of mass on a sensor chip optically.

In turn, “Human integrin αvβ3 (R&D Systems, 3817-AV-050) (from UniProt P06756 31-1048; P05106 27-718) (complex)” returned a Kd of 69.4 nM.
